According to patent US20030073629:
Changes are numbered by the printed parent chain. Numbers in names are those of the source.

B1: Omi-deltaAVPS (C-terminal His6-tagged recombinant mature Omi with the AVPS motif deleted) (protein)
chain: PPPASPRSQYNFIADVVEKTAPAVVYIEILDRHPFLGREVPISNGSGFVVAADGLIVTNAHVVADRRRVRVRLLSGDTYEAVVTAVDPVADIATLRIQTKEPLPTLPLGRSADVRQGEFVVAMGSPFALQNTITSGIVSSAQRPARDLGLPQTNVEYIQTDAAIDFGNSGGPLVNLDGEVIGVNTMKVTAGISFAIPSDRLREFLHRGEKKNSSSGISGSQRRYIGVMMLTLSPSILAELQLREPSFPDVQHGVLIHKVILGSPAHRAGLRPGDVILAIGEQMVQNAEDVYEAVRTQSQLAVQIRRGRETLTLYVTPEVTEHHHHHH
B2: C-terminal His6-tagged recombinant wild type mature Omi (Omi lacking the first 133 residues) (protein)
chain: AVPSPPPASPRSQYNFIADVVEKTAPAVVYIEILDRHPFLGREVPISNGSGFVVAADGLIVTNAHVVADRRRVRVRLLSGDTYEAVVTAVDPVADIATLRIQTKEPLPTLPLGRSADVRQGEFVVAMGSPFALQNTITSGIVSSAQRPARDLGLPQTNVEYIQTDAAIDFGNSGGPLVNLDGEVIGVNTMKVTAGISFAIPSDRLREFLHRGEKKNSSSGISGSQRRYIGVMMLTLSPSILAELQLREPSFPDVQHGVLIHKVILGSPAHRAGLRPGDVILAIGEQMVQNAEDVYEAVRTQSQLAVQIRRGRETLTLYVTPEVTEHHHHHH
B3: Omi-S306A (C-terminal His6-tagged recombinant mature Omi, active site Ser306 to Ala) (protein)
chain: B2 chain with S173A

Target: XIAP, P98170
Sequence (P98170 whole entry): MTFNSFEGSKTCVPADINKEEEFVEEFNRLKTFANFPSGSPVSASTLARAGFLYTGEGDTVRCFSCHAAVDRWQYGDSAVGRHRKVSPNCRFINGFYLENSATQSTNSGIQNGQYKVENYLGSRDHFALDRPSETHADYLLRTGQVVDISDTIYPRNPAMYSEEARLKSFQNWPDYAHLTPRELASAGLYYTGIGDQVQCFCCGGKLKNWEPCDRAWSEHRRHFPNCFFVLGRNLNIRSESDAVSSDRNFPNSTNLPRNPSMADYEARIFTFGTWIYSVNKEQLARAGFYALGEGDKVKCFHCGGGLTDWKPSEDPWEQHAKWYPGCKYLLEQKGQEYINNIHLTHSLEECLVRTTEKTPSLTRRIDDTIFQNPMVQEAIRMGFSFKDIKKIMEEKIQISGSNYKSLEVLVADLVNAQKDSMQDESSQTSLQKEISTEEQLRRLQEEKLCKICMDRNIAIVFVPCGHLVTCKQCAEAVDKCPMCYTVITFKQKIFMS

Q: With B1 as the protein, how does the “procaspase-3 activation in XIAP-containing S100 extracts stimulated with cytochrome c and dATP” value (“procaspase-3 activation” below) read?
A: deletion of this motif abolished its caspase-promoting activity

Q: With B2 as the protein, how does the “procaspase-3 activation” value read?
A: mature WT Omi or the S306A mutant were able to promote procaspase-3 activation in the XIAP-containing S100 extracts almost to the same extent as Smac

Q: How did the “procaspase-3 activation” value turn out when B3 was run?
A: mature WT Omi or the S306A mutant were able to promote procaspase-3 activation in the XIAP-containing S100 extracts almost to the same extent as Smac
